Reference: patent publication US6387638
Ends that are not written are not given here.

How the values were obtained:
[1] = target: T1, ErbB-3 receptor-Ig fusion (homodimer) (human, UniProt P21860 20-643; P21860 20-636); assay: phage ELISA, soluble ErbB-3-Ig as competitor
[2] = target: T2, ErbB-4 receptor-Ig fusion (homodimer) (human, UniProt Q15303 26-651; Q15303 26-640); assay: phage ELISA, soluble ErbB-4-Ig as competitor
[3] = target: T2, ErbB-4 receptor-Ig fusion (homodimer); assay: phage ELISA, soluble ErbB-4-Ig as competitor; remark: listed apart in the source
[4] = target: T1, ErbB-3 receptor-Ig fusion (homodimer); assay: phage ELISA, soluble ErbB-3-Ig as competitor; remark: listed apart in the source

T1 sequence (P21860 other isoform, or with tags, fused parts or gaps): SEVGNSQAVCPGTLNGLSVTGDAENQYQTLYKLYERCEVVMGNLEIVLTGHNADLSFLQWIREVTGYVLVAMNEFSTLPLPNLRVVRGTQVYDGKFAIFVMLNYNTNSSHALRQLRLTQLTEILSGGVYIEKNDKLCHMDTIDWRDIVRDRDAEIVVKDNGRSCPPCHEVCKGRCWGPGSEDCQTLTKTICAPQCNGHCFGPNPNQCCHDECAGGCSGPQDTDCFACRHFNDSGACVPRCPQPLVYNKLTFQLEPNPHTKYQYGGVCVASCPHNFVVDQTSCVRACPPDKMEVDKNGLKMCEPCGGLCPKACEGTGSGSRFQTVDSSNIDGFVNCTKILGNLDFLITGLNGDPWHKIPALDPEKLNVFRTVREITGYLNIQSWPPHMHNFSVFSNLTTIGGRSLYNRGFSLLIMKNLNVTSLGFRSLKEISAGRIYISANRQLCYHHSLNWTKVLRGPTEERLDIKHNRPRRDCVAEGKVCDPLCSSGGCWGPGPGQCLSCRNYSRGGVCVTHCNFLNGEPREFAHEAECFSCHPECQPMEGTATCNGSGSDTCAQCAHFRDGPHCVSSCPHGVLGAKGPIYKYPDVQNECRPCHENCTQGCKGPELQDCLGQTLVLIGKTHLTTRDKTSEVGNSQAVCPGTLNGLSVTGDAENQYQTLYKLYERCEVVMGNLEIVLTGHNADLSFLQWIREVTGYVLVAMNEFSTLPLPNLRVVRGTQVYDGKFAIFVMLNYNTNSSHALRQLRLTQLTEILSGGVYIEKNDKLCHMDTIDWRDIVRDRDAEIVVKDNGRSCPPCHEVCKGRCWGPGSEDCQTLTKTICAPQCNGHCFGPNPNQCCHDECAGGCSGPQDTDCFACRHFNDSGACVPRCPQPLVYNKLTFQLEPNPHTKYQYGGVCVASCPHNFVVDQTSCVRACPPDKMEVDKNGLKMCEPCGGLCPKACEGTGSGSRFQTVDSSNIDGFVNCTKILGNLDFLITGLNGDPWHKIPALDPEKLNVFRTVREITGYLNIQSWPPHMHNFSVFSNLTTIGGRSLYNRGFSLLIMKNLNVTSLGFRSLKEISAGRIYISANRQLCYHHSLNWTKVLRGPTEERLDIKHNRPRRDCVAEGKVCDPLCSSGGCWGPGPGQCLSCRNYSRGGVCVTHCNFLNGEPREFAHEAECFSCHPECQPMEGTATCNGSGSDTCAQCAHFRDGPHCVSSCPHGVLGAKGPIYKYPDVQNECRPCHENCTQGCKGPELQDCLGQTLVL
T2 sequence (Q15303 other isoform, or with tags, fused parts or gaps): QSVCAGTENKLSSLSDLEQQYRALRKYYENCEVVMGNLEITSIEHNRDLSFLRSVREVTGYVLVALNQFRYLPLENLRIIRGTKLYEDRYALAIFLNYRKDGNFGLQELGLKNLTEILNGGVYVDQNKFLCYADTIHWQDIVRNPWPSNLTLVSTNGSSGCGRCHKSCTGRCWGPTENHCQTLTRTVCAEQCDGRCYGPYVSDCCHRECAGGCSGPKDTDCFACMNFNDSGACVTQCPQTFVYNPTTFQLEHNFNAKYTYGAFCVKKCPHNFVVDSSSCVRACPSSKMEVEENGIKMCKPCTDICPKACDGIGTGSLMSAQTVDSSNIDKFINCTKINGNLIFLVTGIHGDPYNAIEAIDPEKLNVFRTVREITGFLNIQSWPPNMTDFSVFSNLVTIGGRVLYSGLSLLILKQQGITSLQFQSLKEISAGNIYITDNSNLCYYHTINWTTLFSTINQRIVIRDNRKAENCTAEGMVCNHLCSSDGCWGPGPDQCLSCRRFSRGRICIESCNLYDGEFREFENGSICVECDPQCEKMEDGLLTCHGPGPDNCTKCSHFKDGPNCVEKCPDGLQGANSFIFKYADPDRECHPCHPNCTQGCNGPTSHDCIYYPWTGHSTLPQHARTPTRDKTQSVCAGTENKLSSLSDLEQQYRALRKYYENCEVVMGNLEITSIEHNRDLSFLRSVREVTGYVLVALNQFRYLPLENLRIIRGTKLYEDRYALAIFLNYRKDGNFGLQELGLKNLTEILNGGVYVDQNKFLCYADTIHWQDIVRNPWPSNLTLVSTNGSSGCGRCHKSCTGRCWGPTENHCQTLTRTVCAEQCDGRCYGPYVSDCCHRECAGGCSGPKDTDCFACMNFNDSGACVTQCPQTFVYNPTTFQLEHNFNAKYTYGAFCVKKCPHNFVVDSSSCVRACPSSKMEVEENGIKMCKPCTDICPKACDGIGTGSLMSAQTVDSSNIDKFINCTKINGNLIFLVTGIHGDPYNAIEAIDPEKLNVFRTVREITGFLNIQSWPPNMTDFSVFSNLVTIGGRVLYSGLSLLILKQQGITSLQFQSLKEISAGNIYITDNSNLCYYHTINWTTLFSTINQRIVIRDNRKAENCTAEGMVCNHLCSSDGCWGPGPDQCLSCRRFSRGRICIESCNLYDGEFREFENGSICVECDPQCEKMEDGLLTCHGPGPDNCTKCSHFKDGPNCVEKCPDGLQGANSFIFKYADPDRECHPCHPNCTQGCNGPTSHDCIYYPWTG

B1: HRG-β1 EGF variant D4, phage-displayed (ligand)
chain: SHLVKCAEKEKTFCVNGGECYRVKTLSNPSRYLCKCPNEFTGDRCQNYVMAS
modifications: not fully specified; cysteine pairing not given here
notes: pHRG8-g3 scaffold; not shown: Display carrier only: the (GGGS)3 linker and the M13 pIII C-terminal fragment from residue 323
EC50(wt)/EC50(mut) [1]: 2.9 ratio | EC50(wt)/EC50(mut) [2]: 5 ratio

B2: HRG-β1 177-244 F189A, phage-displayed (ligand)
chain: SHLVKCAEKEKTACVNGGECFMVKDLSNPSRYLCKCPNEFTGDRCQNYVMASFYKHLGIEFMEAEELY
EC50 [3]: 106 nM | EC50 [4]: 892 nM

B3: HRG-β1 177-244 F216A, phage-displayed (ligand, phage M13)
chain: SHLVKCAEKEKTFCVNGGECFMVKDLSNPSRYLCKCPNEATGDRCQNYVMASFYKHLGIEFMEAEELYGGSGGGSGSGDFDYEKMANANKGAMTENADENALQSDAKGKLDSVATDYGAAIDGFIGDVSGLANGNGATGDFAGSNSQMAQVGDGDNSPLMNNFRQYLPSLPQSVECRPFVFSAGKPYEFSIDCDKINLFRGVFAFLLYVATFMYVASTFANILRNKES
notes: range 247-end
EC50 [4]: 500 nM
